From US20030158102A1 (MAYO FOUNDATION FOR MEDICAL EDUCATION AND RESEARCH, published 2003)
Positions count from the first letter of the chain named.

T1: B7-H2Ig fusion protein (extracellular domain of human B7-H2 linked to an Ig portion); which one not said for … (human, UniProt O75144 19-256)
T1 sequence (looked up): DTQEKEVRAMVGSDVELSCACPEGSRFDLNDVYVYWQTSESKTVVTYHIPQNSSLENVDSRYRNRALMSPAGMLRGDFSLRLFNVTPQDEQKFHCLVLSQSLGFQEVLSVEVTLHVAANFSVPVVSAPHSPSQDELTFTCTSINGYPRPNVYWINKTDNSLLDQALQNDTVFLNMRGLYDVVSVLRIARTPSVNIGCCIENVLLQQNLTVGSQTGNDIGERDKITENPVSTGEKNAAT

T2: human B7-H2 expressed on transfected CHO cells (human, UniProt O75144 19-302)
T2 construct: whole, on cells; also called B7-H2+ CHO cells
T2 sequence (looked up): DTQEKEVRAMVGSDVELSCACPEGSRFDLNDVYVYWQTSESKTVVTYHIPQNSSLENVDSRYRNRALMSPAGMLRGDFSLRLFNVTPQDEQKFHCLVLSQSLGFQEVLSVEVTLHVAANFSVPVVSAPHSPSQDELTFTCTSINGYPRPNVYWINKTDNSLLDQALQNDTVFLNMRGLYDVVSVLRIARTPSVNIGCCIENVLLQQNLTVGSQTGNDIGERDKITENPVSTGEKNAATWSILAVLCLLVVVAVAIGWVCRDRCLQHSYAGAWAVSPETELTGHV

T3: B7-H2mIg (extracellular domain of human B7-H2 linked to mouse IgG2a) (human; mouse, UniProt O75144 19-256)
T3 construct: extracellular domain; also called B7-H2Ig (mouse Ig); B7-H2Ig; not shown: mouse IgG2a
T3 sequence (looked up): T1 sequence (looked up)

B1: ICOSIg mutant Ser76Glu (Fc fusion)
chain: EINGSANYEMFIFHNGGVQILCKYPDIVQQFKMQLLKGGQILCDLTKTKGSGNTVEIKSLKFCHSQLSNNSVSFFLYNLDHSHANYYFCNLSIFDPPPFKVTLTGGYLHIYESQLCCQLK
notes: Built on ICOSIg cDNA; also called Ser76Glu mutant; Ser76Glu protein; not shown: CH2-CH3 portion of human IgG1
B2: ICOSIg mutant Phe51Ser (Fc fusion)
chain: B1 chain with F31S, E56S
notes: Built on ICOSIg cDNA; not shown: CH2-CH3 portion of human IgG1
B3: ICOSIg mutant Asp115Ser (Fc fusion)
chain: B1 chain with E56S, D95S
notes: as for B2
B4: ICOSIg mutant Phe119Ser (Fc fusion)
chain: B1 chain with E56S, F99S
notes: as for B2
B5: ICOSIg mutant Pro117Ser (Fc fusion)
chain: B1 chain with E56S, P97S
notes: Built on ICOSIg cDNA; also called Pro117Ser mutant; not shown: CH2-CH3 portion of human IgG1
B6: ICOSIg mutant Lys67Ser (Fc fusion)
chain: B1 chain with K47S, E56S
notes: as for B2
B7: ICOSIg mutant Phe114Ser (Fc fusion)
chain: B1 chain with E56S, F94S
notes: as for B2
B8: ICOSIg homologue replacement mutant RP64-78 (Fc fusion)
chain: EINGSANYEMFIFHNGGVQILCKYPDIVQQFKMQLLKGGQILCVVYGNYSQQLQVYSKSLKFCHSQLSNNSVSFFLYNLDHSHANYYFCNLSIFDPPPFKVTLTGGYLHIYESQLCCQLK
notes: not shown: CH2-CH3 portion of human IgG1
B9: wild-type ICOSIg (extracellular domain of human ICOS fused to the CH2-CH3 portion of human IgG1) (Fc fusion)
chain: B1 chain with E56S
notes: Made in COS cells; used as concentrated supernatant or purified; also called human ICOSIg; not shown: CH2-CH3 portion of human IgG1
B10: ICOSIg mutant Gln50Ser (Fc fusion)
chain: B1 chain with Q30S, E56S
notes: as for B2
B11: ICOSIg mutant Lys69Ser (Fc fusion)
chain: B1 chain with K49S, E56S
notes: as for B2
B12: ICOSIg mutant Asp64Ser (Fc fusion)
chain: B1 chain with D44S, E56S
notes: as for B2
B13: ICOSIg mutant Gln49Ser (Fc fusion)
chain: B1 chain with Q29S, E56S
notes: as for B2
B14: ICOSIg mutant Lys52Ser (Fc fusion)
chain: B1 chain with K32S, E56S
notes: as for B2
B15: ICOSIg homologue replacement mutant RP49-52 (Fc fusion)
chain: B1 chain with Q29R, Q30E, K32R, E56S
notes: as for B8

biological target: T1, B7-H2Ig fusion protein (extracellular …); assay: cell-based or functional assay

| Binder | T cell proliferation ([3H]-thymidine) costimulated by immobilized B7-H2Ig with anti-CD3 mAb |
| --- | --- |
| B1 | ~10 fold (against wild-type ICOSIg) |

biological target: T2, human B7-H2 expressed on transfected …; assay: FACS on B7-H2+ CHO cells

| Binder | binding result |
| --- | --- |
| B2 | no binding |
| B3 | no binding |
| B4 | no binding |
| B5 | no binding |
| B6 | no binding |
| B7 | no binding |

biological target: T2, human B7-H2 expressed on transfected …; assay: FACS on CHO cells transfected to express B7-H2
Experimental: Flow cytometry: B7-H2⁺ CHO cells (1×10⁵ cells per sample) were incubated on ice for 45 minutes, in a 1:1 mixture of fluorescence activated cell sorter (FACS) buffer (3% FBS and 0.02% NaN₃ in PBS):COS cell culture media containing ICOSIg fusion proteins. The B7-H2Ig fusion protein was used as a negative control. The cells were washed and further incubated with fluorescein isothiocyanate (FITC)-conjugated goat anti-human IgG (BioSource, Camarillo, Calif.) on ice for 30 minutes. Fluorescence was analyzed on a FACScaliber flow cytometer (Becton Dickinson, Mountain View, Calif.) with Cell Quest software (Becton Dickinson).
Mutagenesis analysis of the interaction between ICOS and B7-H2: The conserved regions within ICOS were subjected to mutagenesis in order to analyze their importance for binding to B7-H2. […] These constructs were expressed as ICOSIg hybrid proteins in COS cells, and the concentrations of the mutant proteins in serum-free culture media was determined by sandwich ELISA using anti-human Ig mAbs (BD Pharmingen). […] The ability of each ICOSIg mutant to bind to B7-H2 was determined by sandwich ELISA using B7-H2Ig (mouse Ig) and anti-human Ig mAb (FIG. 3A), and also by FACS analysis of ICOSIg binding to CHO cells that were transfected to express B7-H2. […]

| Binder | binding result |
| --- | --- |
| B8 | no binding |

biological target: T3, B7-H2mIg (extracellular domain of human …); assay: capture ELISA, B7-H2mIg coated, anti-human IgG-HRP detection
Experimental: The ability of ICOSIg mutants to bind B7-H2 was measured using capture ELISA. Recombinant B7-H2mIg fusion proteins were coated on microtiter plates at 5 μg/ml and incubated overnight at 4° C. As described above, wells were blocked and then washed with PBS-Tween, and COS cell culture media was added and incubated for 2 hours at room temperature. HRP-conjugated goat anti-human IgG was added after washing, followed by TMB substrate and H₂SO₄, and absorbance was measured at 405 nm.
^a The regions, nucleotides, or amino acids in front of the slash were replaced with the corresponding regions, nucleotides, or amino acids after the slash. ^b Nucleotides are numbered from the A of the initiation codon. ^c Amino acids are numbered from the initiation methionine. ^d Specific binding activities were determined for each of the indicated fusion proteins. The concentration of a fusion protein required to give an arbitrary A405, which is the same as that of wild type ICOSIg, was determined from the linear region of binding curves and expressed as a percentage of specific binding activity of ICOSIg. Values represent the average of three determinations from each binding curve. The results are representative of three experiments.

| Binder | B7-H2 Binding (specific binding activity as percentage of ICOSIg) |
| --- | --- |
| B8 | < 0.1 % of wild type ICOSIg |
| B9 | 100 % of wild type ICOSIg |
| B1 | 300 % of wild type ICOSIg |
| B2 | < 0.1 % of wild type ICOSIg |
| B10 | 6 % of wild type ICOSIg |
| B3 | < 0.1 % of wild type ICOSIg |
| B4 | < 0.1 % of wild type ICOSIg |
| B5 | < 0.1 % of wild type ICOSIg |
| B11 | 3 % of wild type ICOSIg |
| B6 | < 0.1 % of wild type ICOSIg |
| B12 | 6 % of wild type ICOSIg |
| B13 | 33 % of wild type ICOSIg |
| B7 | < 0.1 % of wild type ICOSIg |
| B14 | 200 % of wild type ICOSIg |
| B15 | 9 % of wild type ICOSIg |
